Experiment: soluble on expression in E. coli; label from the status in PepcDB or PDB records

Row | Sequence | soluble on expression in E. coli
1 | SNAMIRKYRYGAPFDTEALTEKIETAEEAFPYGEISQKEGFAFTYIMDEDDIVYGLGESNRGINKRGYCYISNCTDDPIHTEDKRSLYGAHNFIIVSGKTTFGLFFDYPSKLTFDIGYTRMDTLKVSCENADLDIYVIEGENAYDIVKQFRRVIGRSYIPPKFAFGFGQSRWGYTTKEDFRAVAKGYRENHIPIDMIYMDIDYMQDFKDFTVNEKNFPDFPEFVKEMKDQELRLIPIIDAGVKVEKGYEVYEEGVKNNYFCKREDGSDFVAAVWPGDTHFPDMLNPEARKWFGDKYRFLIDQGIEGFWNDMNEPAIFYSSEGLAEAKEFAGEFAKDTEGKIHPWAMQAKMKDIVNSPEDYKRFYHNVNGKKIRHDKVHNLFGYNMTRAAGEAFERIDPEKRFLMFSRSSYIGMHRYGGIWMGDNKSWWSHILLNLKMLPSLNMCGFMYTGADLGGFGDDTTRDLLLRFLALGVFTPLMRDHAAEGTREQECYQFENIEDFRSVINARYRLVPYLYSEYMKAALNDDMYFKPLGFVYPDDKMAIRVEDQLMLGNEIMIAPVYEQNARGRYVYLPEEMKFIKFMPDGSISEEVLEKGVHYVDVALNEVPLFIRSGKCIPVAEAAECVKDIDTENMQLIGYEGSSYTLYEDDGIHKDYDKKENYRVLTK | soluble
2 | SNAMRIGHGFDVHKFGENGSGPLIIGGVRIPYEKGLLAHSDGDVALHAATDALLGAAALGDIGKLFPDTDPAFKGADSRGLLREAYRRILAKGYKLGNLDITIIAQAPKMAPHIPQMRVNLAEDLQCHMDDINVKATTTEQLGFTGRGEGIACEAVVLLVNVEQG | soluble
3 | MRLSFLTLQRRHALRDALRHKPAPRCRTQERTQSVQNGMPTRSVARLEHHHHHH | not soluble
4 | MGSDKIHHHHHHAAVLSGCEFNEDFCIRNGELVAWCDFSGIRETPPVPEERHIIAFPSGMDIPSGEQMTFTQDTLRQSIPQGEYQFLFYTGNYEVSDIRDYHEARLMARTDTLEGEVYISGVQKFCCSAGFSQRLEYQRPKRVPITPSAFVQRLNIQINVSGNITPLAGLQGTLTGISTGRYLVSRERTGNASVTSLFSRKPETDRWKTSLYAFGFNPAAENILSVKIEMDGKDSVFNEEQKVDLTPYLRGFDSDELSLELDLHIGKELTIGEPVVIPDWEDIPETELPNYN | not soluble
5 | MGSDKIHHHHHHMLRYHMQGFSGYGVQYSPFFDNRLAVAAGSNFGLVGNGKLFILEIDRSGRIVEVNSFLTQDCLFDLAWNESHENQVLVAQGDGTLRLFDTTFKEFPIAIFKEHEREVFSCNWNLVNRQNFLSSSWDGSIKIWSPLRKQSLMTLTPRPLEITKMVDPLNAIILKKKSFTGISKNRNCVYQAQFSPHDQNLVLSCSGNSYASLFDIRLPSGKNQNNFLVHSGLEALTCDFNKYRPYVVATGGVDNAIRIWDIRMLNKNESATIKRTVPGQLHNSSCINEIPNAHGLAIRKVTWSPHHSNILMSASYDMTCRIWRDLSNDGAKETYKTNSTDATKGSIFNFTQHSEFVFGADWSLWGKPGYVASTAWDGNLFVWNGLG | not soluble
6 | ENAIIGVNDHTLVTESDGRRWVTREPAIVYFHKKYWFNIIAMIRDNGTSYYCNMASPYYLDEEALKYIDYDLDVKIFTDGEKRLLDVEEYERHKRKMNYS | not soluble
7 | GPGSMIYSGEIENGQMHGRGCLQYPNKEKYDGDWVFGKRHGTGVYVYADGSRYEGEWVDDKVHGNGACYYTSGNVYTGEWSMGRINGRGVLEYHDGDRYEGEWKDGRMHGKGTYCYSNGDKYEGEWKEDKRHGKGVVVYAAPDGCVSEKYDGEWNEGRMQGWGKYFYADGGVYEGEWVDGRMHGRGTYVFPNGNKYEGEWVEDRKDGYGILLYTNGERYEGYWHLDKAHGKGTLTFLQGDRYVGEWHYGKKHGHGVLSYSNGDTYDGEWRDDDAWGYGVLQYANGCRYEGEWAEDRRHGKGLLVLPDGSSYEGSFAHGKKDGPGKIILKDGSMYIGTWKDGVIVGQGEFRLSENCDLSNPDY | soluble
8 | MSDPAIAVLPYGMKLGPALSGLPLDQVNWPLGCPERLVGKTLGDLGAGDHLLVYPRTGTHFQLSRGTRARISLIMAEPAVIHAKHYALLRVTWRRFHRVLTFNQAAVDRLPNARLLLFGSTWVPEWQSLTPEKVAQCSLIASAKRDSTGHKLRHAVVDWVRASDQDVAVLGRGYQPFDSKADGLAPYRYSVVIENVQERNYFSEKLLDAVFCETVPIYWGCPNIADFVDTTAMILCTREEDIRRAVAEMSAEDYAARLPALRALKQQLAPYAAHEARAARMILDELLEHHHHHH | soluble
9 | MSLRNDPTGVTHAIRLDNDIFKLNVYIKNIDTSKSNLRYTEGYLQSLTNILTRAKEIAIQGASGTYESDDKKMISKEVNALLEDVVAIANAKGPDGYSIFSGTKIDSEAFKVTRENKISKTSKDGAGPQIIKVEYNGNQAEKKTEVYNDIHMSNNYPGNVIFFLQNQNIISSINTNGFAVKENTKIYIDNIEIGLTAGDTALDIVAKINESSAPVEASIDPVLNSLSIKTTTPHQIWITEEKESNVLQTLGILTKNNDTKLPPYNLSSSTEVRSRSIFDALIELRDTLYNNKEELVGSRSLAEIDESLKRLLISVADLGAKENRLDRSYERISKEAADMKEDMIQYTDLDVTKAITNLNMASLAYQVSIGISAKIMQTTLLDFIKEGHHHHHH | soluble
10 | SLAPPAPPVSYGVEEDVFHPVRAKQGMVASVDATATQVGVDILKEGGNAVDAAVAVGYALAVTHPQAGNLGGGGFMLIRSKNGNTTAIDFREMAPAKATRDMFLDDQGNPDSKKSLTSHLASGTPGTVAGFSLALDKYGTMPLNKVVQPAFKLARDGFIVNDALADDLKTYGSEVLPNHENSKAIFWKEGEPLKKGDTLVQANLAKSLEMIAENGPDEFYKGTIAEQIAQEMQKNGGLITKEDLAAYKAVERTPISGDYRGYQVYSMPPPSSGGIHIVQILNILENFDMKKYGFGSADAMQIMAEAEKYAYADRSEYLGDPDFVKVPWQALTNKAYAKSIADQIDINKAKPSSEIRPGKLAPYESNQTTHYSVVDKDGNAVAVTYTLNTTFGTGIVAGESGILLNNQMDDFSAKPGVPNVYGLVGGDANAVGPNKRPLSSMSPTIVVKDGKTWLVTGSPGGSRIITTVLQMVVNSIDYGLNVAEATNAPRFHHQWLPDELRVEKGFSPDTLKLLEAKGQKVALKEAMGSTQSIMVGPDGELYGASDPRSVDDLTAGY | soluble
11 | MGSDKIHHHHHHMIDFSLCEVNKFRAYGGANGNKINILYEGNSYMLKFSPVPSRNKAMSYTNGCISEYLACHIFASLGFKTQETLLGTYTDPRGKEKVVVACGDFTEGGKRLIEFAHLKNTCISSEQNGYGKELSSIMQAIDEQMLLPPDQLRDFFWDMFIADALLGNFDRHNGNWGILVDEQSKTAEIAPVYDCGSCLYPQLAAKDMGDVLNSEDEIDRRVYVFPTSSIEEDGKKISYFEFISSLRNPDCTAALKRVSARIDMEKIRMLIDKTPTLLPVQKEFYTVIISERKAKIIDYSMEKLMKLKGQDLERDEQQNGGLQFTM | not soluble
12 | MAHHHHHHMEGQERRSVVEMTNTKTILLDPKDGWAPKAQFDFDASLWSIPPTHRIVHTFQDTKHKTYATQKDVYNLIAKDLVPHVFNGFNSCILTYGQTGSGKTYTMMGLYDPNASCGGDGEEGIIPRVSNDIFIILKERMEEEAKTRPPRDRTKFRVEVSFVEIYMERVRDLLDPALRHTRSNEHLQDARIRQDPYSGPFVEGVTKYEVENWTQCCTLLERGSQHRTTCATAVHNQSSRSHAIFQLTVVQEQVVPGNNKYALPAFKTQAGRINLVDLAGSERGGFQDYVKESAAINTSLLALRRVIDNLTERQNMLMEMAEAEITGKHYQERPLPQVPFRDSVLTWLLSDSIGGNARTTMVATLSPLVKNYADTLATLQWSSRARNLVTLVKMNDQALVHNGMASHAGALDNAVRIQRQNLDSLRQTLRSKQEAAQQLERQTKEHKKSLTKVRGRERAILRDRAALIIQRAFHRFLFYKKYEAYELHHAKLRGGNKRGTGDAADFQKIRKEAEAREQAAKEALKAEEALTDEKAAAVARYESNYEARALRRREAEERQARIVEVINGNELLRQYVEKRRQEVEALRSVADNENREREMAVKKLADMIKAIADHKTDQHKRKVEEDQKMLEMLRKKRDEVRSRRYEVLRQLQTLRERHKKVVKK | not soluble
13 | MSLKHEQIINEKIIIDTSIFTNPEVYQTFGNDPTDALRSFLEIISKLKGPIFYMPQTIYEELLNFVEIKDIQVDLQMLLQQKSPKRYELTVPAFLLYELIEDVRLRIDKGLRVAETAVRETSPDTEPEAIANLRKKYRMALREGIIDSKEDVDLILLAKEMDGIMMTADTGIVKWADKLGIRYIDPRMLRSILDKLAAASEGHHHHHH | soluble

Reference: the DeepSol protein solubility set
